In patent US20180127735A1:

Assays:
[1] = target: protein C (UniProt P04070)
[2] = target: thrombin (Homo sapiens (Human)) (UniProt P00734); test: cell-based or functional assay

thrombin
enzyme-mediated conversion of protein C into activated protein C (aPC), thrombin in the absence of TM [1]: minimal activated protein C (aPC) activity was generated

full-length thrombomodulin (from UniProt P07204 19-575) (receptor)
clotting time of fibrinogen by thrombin with thrombomodulin at saturating concentrations [2]: < 305 min
